# B1: SRPK1 (SR protein-specific kinase, 92 kD) purified from Hela cell S100 extracts, SEQ ID NO:2 (Homo sapiens) (protein)
# chain: MERKVLALQARKKRTKAKKDKAQRKSETQHRGSAPHSESDLPEQEEEILGSDDDEQEDPNDYCKGGYHLVKIGDLFNGRYHVIRKLGWGHFSTVWLSWDIQGKKFVAMKVVKSAEHYTETALDEIRLLKSVRNSDPNDPNREMVVQLLDDFKISGVNGTHICMVFEVLGHHLLKWIIKSNYQGLPLPCVKKIIQQVLQGLDYLHTKCRIIHTDIKPENILLSVNEQYIRRLAAEATEWQRSGAPPPSGSAVSTAPQPKPADKMSKNKKKKLKKKQKRQAELLEKRMQEIEEMEKESGPGQKRPNKQEESESPVERPLKENPPNKMTQEKLEESSTIGQDQTLMERDTEGGAAEINCNGVIEVINYTQNSNNETLRHKEDLHNANDCDVQNLNQESSFLSSQNGDSSTSQETDSCTPITSEVSDTMVCQSSSTVGQSFSEQHISQLQESIRAEIPCEDEQEQEHNGPLDNKGKSTAGNFLVNPLEPKNAEKLKVKIADLGNACWVHKHFTEDIQTRQYRSLEVLIGSGYNTPADIWSTACMAFELATGDYLFEPHSGEEYTRDEDHIALIIELLGKVPRKLIVAGKYSKEFFTKKGDLKHITKLKPWGLFEVLVEKYEWSQEEAAGFTDFLLPMLELIPEKRATAAECLRHPWLNS
# notes: SRPK1 PURIFICATION FROM HELA CELL S100 EXTRACTS; endogenous in cells; host or cells: HeLa cells (S100 extract; phosphocellulose P11, Phenyl Sepharose, Mono Q, Mono S)
# Substrate: Nc1ncnc2c1ncn2[C@@H]1O[C@H](COP(=O)(O)OP(=O)(O)OP(=O)(O)O)[C@@H](O)[C@H]1O
# Assay: SRPK1 kinase assay, determination of Km for ATP (double-reciprocal plots, SF2/ASF as substrate)
# Type: biochemical, human
# Details: other: ATP titrated against four SF2/ASF concentrations (bacterially expressed SF2/ASF as substrate), pH 7.4, 30.0 °C
# Experimental: FIG. 7 describes the kinetic properties of SRPK1. […] Different ATP concentrations were titrated against four SF2/ASF concentrations (.diamond-solid.0.05 μM; .circle-solid.0.1 μM; Δ0.05 μM; .diamond.0.7 μM). […] Five SF2/ASF concentrations (0.05 μM, 0.1 μM, 0.25 μM, 0.5 μM, and 1.0 μM) and four MBP concentrations (2.5 μM, 5.0 μM, 12.5 μM, and 25 μM) were used in the phosphorylation reactions. Saturating ATP (100 μM) and SRPK1 (27,000 units) were used in these reactions.
# 0.5 μg of purified SC35 or SF2/ASF was used as a substrate in a final volume of 20 μl kinase assay mixture containing 50 mM Tris-pH7.4, 10 mM MgCl2, 1 mM DTT, 2 μM ATP, and 2 μCi [^32 P-]ATP. The reaction was initiated by adding 2 μl of each column fraction and incubated at room temperature for 15 min. Proteins were, resolved in a 12.5% SDS gel. After staining and autoradiography, gel slices containing radioactive proteins were quantitated in a liquid scintillation counter. For saturation phosphorylation of SF2/ASF, 100 μM ATP was used, and the reaction was carried out at 30° C. for 2 hours.
# SRPK1 is specific for splicing factors containing an SR domain as shown in EXAMPLE 4. Kinetic analyses were carried out to further characterize the kinase. […] The kinase activity depended on ATP concentration with a Km for ATP of 10 μM (FIG. 7A). […]
protein,measurement,value
B1,Km,10 µM
